Reference: patent publication US20250099534A1 (TECHNION RESEARCH AND DEVELOPMENT FOUNDATION, published 2025)
Starred links: 1 amine or outer side, 2 acyl side, 3 side chain; linkers in the order of their positions; H or OH if unused. Positions of bridges follow the written chain, without caps; N, C: chain ends. Primed or numbered codes have the meaning given here. No end group written: not given here. *: point of attachment. mClBz(3) = 3-(chloromethyl)benzoic acid, non-amino acid initiator forming a thioether with the C-terminal-region Cys, O=C(c1cccc(C[*:3])c1)[*:2]; mClBz(4) = 3-(chloromethyl)benzoic acid initiator, its benzyl thioether with a Cys side chain closes the ring, O=C(c1cccc(C[*:3])c1)[*:2]; mClBz = N-terminal group cyclised as a benzyl thioether to a Cys, O=C(c1cccc(C[*:3])c1)[*:2]; C10F9 = S-aryl group from decafluorobiphenyl, Fc1c(F)c(F)c(-c2c(F)c(F)c(*)c(F)c2F)c(F)c1F; mBz = 3-(methylene)benzoyl on the N-terminal amine, O=C(c1cccc(C[*:3])c1)[*:2]; C6F5 = pentafluorophenyl group on the Cys sulfur, Fc1c(F)c(F)c(*)c(F)c1F; Bn = c1ccc(C*)cc1; Acm = CC(=O)NC*

Each binder was assayed against T1, Lys48-linked Tetra-Ub (UniProt P0CG47 1-76, isopeptide bonds between the C-terminal Gly and Lys48 of successive Ub units) (assay: fluorescence-based assay of relative binding on Lys48-linked Tetra-Ub, normalised to Ub4_ix; the labelled competitor is not named [panel headed '(iv) Binding of 1 and 2 against Lys48 Tetra-Ub as a target' (v) of the legend]).
T1 construct: mature

| Binder | binding result |
| --- | --- |
| mClBz-CLIWIGSSKNPYILCG (bridge N-15; not fully specified (C-terminus, bridges), also called CP2) [cyclic peptide 2 (CP1-L1C)] | binds |

What follows are binders tested against T2, biotinylated-Lys63 linked Di-Ub (UniProt P0CG47 1-76, isopeptide bond between the C-terminal Gly of the distal Ub and Lys63 of the proximal Ub; biotin tag at the N-terminus of the distal Ub) (assay: fluorescence-based competitive assay: unlabeled peptide, 5.0 molar equiv., pre-bound to biotinylated Lys63-linked Di-Ub on a streptavidin plate, then competed with CP1-FITC (1 equiv.); signal change relative to 1 (CP1), Y=[1-(a/b)]x100).
T2 construct: mature; Immobilised on streptavidin plates or on the SPR CAPture chip; also called K63-linked Di-Ub; biotin-Lys63 linked Di-Ub
Experimental: Streptavidin-coated microplate (96 well plate) was washed with HEPES buffer (50 Mm HEPES, 150 Mm NaCl, pH 7.30) and then in each well incubated 1 μg of biotinylated-Lys63-linked Di-Ub in 100 μl of the same buffer at RT. for 30 min. Additional wells were kept without biotinylated-Lys63-Di-Ub for blank subtraction. After the washing step, peptide standard (CP1) and unlabeled peptides were incubated (5.0 molar equivalent relative to biotin-Lys63-linked Di-Ub) at RT for 30 minutes for saturation binding to the target. Then 1 molar equivalent of FITC labeled peptide-standard (CP1-FITC) relative to biotinylated-Lys63-linked Di-Ub was incubated to compete with unlabeled peptides at RT for 30 min. After releasing bounded peptides on treatment with 6 M Guanidinium chloride (Gnd·HCl), the fluorescence values were measured (λex=480 nm and λem=525 nm). These values were normalized and then calculated the relative change in binding with the following formula:
Y=[1−(a/b)]×100 [0289] Where Y=Signal change relative to the standard (CP1) (in terms of %). [0290] a=Measured signal value of each peptide candidate (in Relative Fluorescence Units). [0291] b=Measured signal value of standard peptide (CP1). The dissociation constant (KD) of fluorescein-labeled peptide (CP1-FITC) was calculated in accordance with the literature procedure (Vamisetti G B et al., 2021).

| Binder | binding result |
| --- | --- |
| {mClBz(3)}-C(CH3)LIWIGSSKNPYILCG (bridge N-15; not fully specified (C-terminus, bridges)) [cyclic peptide 15, CP1-L1C-CH3] | binds |
| mClBz-C(C6F5)LIWIGSSKNPYILCG (thioether N-15) [cyclic peptide 20, CP1-L1C-C6F5] | binds |
| {mClBz(3)}-C(Bn)LIWIGSSKNPYILCG (bridge N-15; not fully specified (C-terminus, bridges)) [cyclic peptide 16, CP1-L1C-CH2C6H5] | binds |
| {mClBz(3)}-C(CH2C10H7)LIWIGSSKNPYILCG (bridge N-15; not fully specified (C-terminus, bridges)) [cyclic peptide 18, CP1-L1C-CH2C10H7] | binds |
| {mClBz(3)}-C(CH2CONH2)LIWIGSSKNPYILCG (bridge N-15; not fully specified (C-terminus, bridges)) [cyclic peptide 17, CP1-L1C-CH2CONH2] | binds |
| mBz-C(Acm)LIWIGSSKNPYILCG-NH2 (thioether N-15; SMILES CC[C@H](C)[C@@H]1NC(=O)[C@H](Cc2c[nH]c3ccccc23)NC(=O)[C@H]([C@@H](C)CC)NC(=O)[C@H](CC(C)C)NC(=O)[C@H](CSCNC(C)=O)NC(=O)c2cccc(c2)CSC[C@@H](C(=O)NCC(N)=O)NC(=O)[C@H](CC(C)C)NC(=O)[C@H]([C@@H](C)CC)NC(=O)[C@H](Cc2ccc(O)cc2)NC(=O)[C@@H]2CCCN2C(=O)[C@H](CC(N)=O)NC(=O)[C@H](CCCCN)NC(=O)[C@H](CO)NC(=O)[C@H](CO)NC(=O)CNC1=O, Acm-protected precursor of cyclic peptide 2; also called CP1-L1C-Acm; cyclic peptide 14) [14] | binds |
| {mClBz(3)}-C(7‑methoxycoumarin‑4‑ylmethyl)LIWIGSSKNPYILCG (bridge N-15; not fully specified (C-terminus, bridges)) [cyclic peptide 19, CP1-L1C-CH2C10H7O3] | binds |
| mClBz-C(C10F9)LIWIGSSKNPYILCG (thioether N-15) [cyclic peptide 21, CP1-L1C-C10F9] | binds |
| mClBz-CLIWIGSSKNPYILCG (bridge N-15; not fully specified (C-terminus, bridges), also called CP2) [cyclic peptide 2 (CP1-L1C)] | binds |

Each binder was assayed against T2, biotinylated-Lys63 linked Di-Ub (assay: SPR (BIACORE T100), biotinylated Lys63 Di-Ub on a CAPture chip).
Experimental: The binding of cyclic peptide 1 (CP1) against the target, Lys63 linked Di-Ub was determined using BIACORE T100 instrument (GE Healthcare) equipped with a biotin CAPture kit series S chip. 50 mM HEPES (pH=7.30, 150 mM NaCl, 0.05% Tween 20, 2.0 mM DTT, 0.2% DMSO) was used as buffer. Biotinylated-Lys63 linked Di-Ub was loaded on the SPR chip. By using various concentrations of peptide.

| Binder | Kd [nM] |
| --- | --- |
| {mClBz(4)}-LLIWIGSSKNPYILCG-NH2 (thioether N-15; SMILES CC[C@H](C)[C@@H]1NC(=O)[C@H](Cc2c[nH]c3ccccc23)NC(=O)[C@H]([C@@H](C)CC)NC(=O)[C@H](CC(C)C)NC(=O)[C@H](CC(C)C)NC(=O)c2cccc(c2)CSC[C@@H](C(=O)NCC(N)=O)NC(=O)[C@H](CC(C)C)NC(=O)[C@H]([C@@H](C)CC)NC(=O)[C@H](Cc2ccc(O)cc2)NC(=O)[C@@H]2CCCN2C(=O)[C@H](CC(N)=O)NC(=O)[C@H](CCCCN)NC(=O)[C@H](CO)NC(=O)[C@H](CO)NC(=O)CNC1=O, Found by RaPID selection, then made by Fmoc-SPPS; also called lead cyclic peptide 1) [cyclic peptide 1 (CP1)] | 16 |

Each binder was assayed against T3, Lys48-linked Di-Ub (UniProt P0CG47 1-76, isopeptide bond between the C-terminal Gly of one Ub and Lys48 of the other) (assay: fluorescence-based assay of relative binding on Lys48-linked Di-Ub, normalised to mJ08-L8W; the labelled competitor is not named [iv]).
T3 construct: mature

| Binder | binding result |
| --- | --- |
| mClBz-CLIWIGSSKNPYILCG (bridge N-15; not fully specified (C-terminus, bridges), also called CP2) [cyclic peptide 2 (CP1-L1C)] | binds |
